# Reference: PMC12866851, “ACSL5 Regulates Glucose Metabolism and Chemotherapy Sensitivity in Colorectal Cancer Cells under Glutamine Deficiency” (Advanced Science, 2025)
# B1: isocitrate dehydrogenase 2 (IDH2) (enzyme, human (endogenous in HCT116), UniProt P48735 40-452, looked up)
# chain: ADKRIKVAKPVVEMDGDEMTRIIWQFIKEKLILPHVDIQLKYFDLGLPNRDQTDDQVTIDSALATQKYSVAVKCATITPDEARVEEFKLKKMWKSPNGTIRNILGGTVFREPIICKNIPRLVPGWTKPITIGRHAHGDQYKATDFVADRAGTFKMVFTPKDGSGVKEWEVYNFPAGGVGMGMYNTDESISGFAHSCFQYAIQKKWPLYMSTKNTILKAYDGRFKDIFQEIFDKHYKTDFDKNKIWYEHRLIDDMVAQVLKSSGGFVWACKNYDGDVQSDILAQGFGSLGLMTSVLVCPDGKTIEAEAAHGTVTRHYREHQKGRPTSTNPIASIFAWTRGLEHRGKLDGNQDLIRFAQMLEKVCVETVESGAMTKDLAGCIHGLSNVKLNEHFLNTTDFLDTIKSNLDRALGRQ
# notes: IDH2, mitochondrial isocitrate dehydrogenase 2, endogenous in human HCT116 cells; source: endogenous, HCT116 lysate
# Molecular target: the molecule itself
# Assay: cross-linking; HCT116 cells (shctrl or shACSL5) treated without or with DSS crosslinker; whole cell lysates, Western blot against IDH2; dimer and monomer of IDH2
protein,measurement,value
B1,stoichiometry N,2
